Measured values as given in publication PMC11552376, “Specific binding between Arabidopsis thaliana phytochrome-interacting factor 3 (AtPIF3) bHLH and G-box originated prior to embryophyte emergence” (BMC Plant Biology, 2024).
Each block holds one molecule with its values, some of them ahead of it.

Assays:
[1] = target: AtPIF3-bHLH K362A mutant (Arabidopsis thaliana) (UniProt O80536); assay: SEC; Superdex75 size exclusion column, UV trace at 280 nm, compared with molecular weight standards (albumin, carbonic anhydrase, cytochrome c, vitamin B12); gel filtration buffer of the methods: 30 mM HEPES, 500 mM NaCl, pH 7.4; oligomeric state of the protein with itself
AtPIF3-bHLH WT [2] = target: T1, AtPIF3-bHLH WT (Arabidopsis thaliana, UniProt O80536 340-397); assay: ITC; ITC: 30 mM HEPES, 125 mM NaCl, pH 7.5, 25 C, 400 uM protein into 40 uM DNA; fEMSA: 30 mM HEPES, 500 mM NaCl, pH 7.4, on ice 30 min, 3 uM probe, 10% native gel in 0.5x TBE at 4 C; details: protein: recombinant; tags: C-terminal His6; chain copies: 2; blunt
T1 sequence: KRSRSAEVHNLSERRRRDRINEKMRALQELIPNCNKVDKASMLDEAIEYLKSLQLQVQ

[3] = target: the molecule itself; assay: SEC; Superdex75 size exclusion column, UV trace at 280 nm, compared with molecular weight standards (albumin, carbonic anhydrase, cytochrome c, vitamin B12); gel filtration buffer of the methods: 30 mM HEPES, 500 mM NaCl, pH 7.4; oligomeric state of the protein with itself
AtPIF3-bHLH WT [4] = target: T1, AtPIF3-bHLH WT; assay: EMSA; DNA:protein 1:1 to 1:20; ITC: 30 mM HEPES, 125 mM NaCl, pH 7.5, 25 C, 400 uM protein into 40 uM DNA; fEMSA: 30 mM HEPES, 500 mM NaCl, pH 7.4, on ice 30 min, 3 uM probe, 10% native gel in 0.5x TBE at 4 C; details: protein: recombinant; tags: C-terminal His6; chain copies: 2; label: 5' fluorescein; blunt

stoichiometry N [1]: 2
Molecule: AtPIF3-bHLH K362A mutant (from UniProt O80536 343-392) (domain or fragment)

B1: G-box (PER2), ITC (dsDNA)
DNA 1: AGGAACACGTGACCC
DNA 2: GGGTCACGTGTTCCT
Kd (AtPIF3-bHLH WT [2]): 0.32 ± 0.014 µM

B2: Arabidopsis thaliana PIF3-bHLH (AtPIF3-bHLH) recombinant protein, wild type (domain or fragment, UniProt O80536 340-399, looked up)
chain: KRSRSAEVHNLSERRRRDRINEKMRALQELIPNCNKVDKASMLDEAIEYLKSLQLQVQIM
notes: Cloned between NheI and XhoI of pET21b; also called PIF3-bHLH–His6; WT; source: E. coli Rosetta (DE3), pET21b, purified (HisTrap FF, Superdex75 gel filtration); not shown: His6, C-terminal, kept
stoichiometry N [3]: 2

B3: pPIL1 G-box (dsDNA)
DNA 1: GCATTCACGTGAAGT
DNA 2: ACTTCACGTGAATGC
binding result (AtPIF3-bHLH WT [4]): binds

B4: AtPIF3-bHLH M399A mutant (domain or fragment, Arabidopsis thaliana, UniProt O80536 343-399, looked up)
chain: RSAEVHNLSERRRRDRINEKMRALQELIPNCNKVDKASMLDEAIEYLKSLQLQVQIA
notes: bHLH domain of PIF3 (AT1G09530), Arabidopsis thaliana, with M399A; Site-directed mutant of m1
stoichiometry N [3]: 2
